For assay [1], the target named is T1, E6AP AZUL (amino-terminal zinc-binding domain of ubiquitin E3a ligase), amino acids 24 to 87 (human, UniProt Q05086 24-87).
T1 chain: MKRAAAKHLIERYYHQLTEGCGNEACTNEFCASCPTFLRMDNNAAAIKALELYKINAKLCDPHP
In words: ITC; Y326 phosphorylated. (In general: In ITC the heat of successive injections is recorded.)

For assay [2], the target named is T1, E6AP AZUL (amino-terminal zinc-binding …). In words: ITC; Y326 phosphorylated.
Assay [3] shares this target. Briefly: ITC.
The target is the same in assay [4]. Briefly: ITC.
Assay [5] shares this target. In words: SPR. On the technique in general: SPR reads the build-up and loss of mass on a sensor chip optically.

From PMC7064531 (2020) come the findings set out here.

Where no end group is shown, it is not given here. [ ]: non-standard residue; d: D form. pY = N[C@@H](Cc1ccc(OP(=O)(O)O)cc1)C(=O)O

On to EEDD[pY]DVMQDPEFLQSVLENLPGVDPNNEAIRNAMGSLASQATKD (not fully specified) [hRpn10^322–366 peptide with Y326 phosphorylated], for which the Kd in assay [1] and in assay [2] was 189 nM each time.

Regarding EEDDYDVMQDPEFLQSVLENLPGVDPNNEAIRNAMGSLASQATKD [hRpn10^322–366 peptide], the dissociation constant Kd in assay [3] and in assay [4] was 18.2 nM in each case.

B1: GST-hRpn10^305–377 (domain or fragment)
chain: SADIDASSAMDTSEPAKEEDDYDVMQDPEFLQSVLENLPGVDPNNEAIRNAMGSLASQATKDGKKDKKEEDKK
As to B1, in assay [5], the off-rate constant (koff) (in general, a measure of how fast the partners let go of each other) was 0.0211 s⁻¹.
